Results from article PMC9482650, “Quantitative fragmentomics allow affinity mapping of interactomes” (Nature Communications, 2022).

T1: GIPC1, O14908
T1 sequence (O14908 128-223, limits assumed, looked up): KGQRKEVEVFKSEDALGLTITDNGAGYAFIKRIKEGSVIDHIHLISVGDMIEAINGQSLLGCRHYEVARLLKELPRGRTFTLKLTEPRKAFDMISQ

T2: MAGI2_1, Q86UL8
T2 sequence (Q86UL8 12-111, limits assumed, looked up): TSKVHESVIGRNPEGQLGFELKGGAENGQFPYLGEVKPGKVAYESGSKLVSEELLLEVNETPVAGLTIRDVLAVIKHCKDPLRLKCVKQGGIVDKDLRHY

T3: MPDZ_11, O75970
T3 sequence (O75970 1720-1817, limits assumed, looked up): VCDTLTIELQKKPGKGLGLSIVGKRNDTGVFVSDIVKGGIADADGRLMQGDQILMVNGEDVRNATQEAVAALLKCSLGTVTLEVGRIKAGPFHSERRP

T4: MPDZ_13, O75970
T4 sequence (O75970 1982-2070, limits assumed, looked up): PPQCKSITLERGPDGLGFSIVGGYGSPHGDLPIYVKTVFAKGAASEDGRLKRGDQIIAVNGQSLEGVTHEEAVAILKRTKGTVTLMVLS

T5: PDZD2_5, O15018
T5 sequence (O15018 2617-2716, limits assumed, looked up): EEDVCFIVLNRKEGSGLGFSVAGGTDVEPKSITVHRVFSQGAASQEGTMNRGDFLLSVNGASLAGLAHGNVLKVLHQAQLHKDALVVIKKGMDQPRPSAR

T6: PDZD2_6, O15018
T6 sequence (O15018 2745-2839, limits assumed, looked up): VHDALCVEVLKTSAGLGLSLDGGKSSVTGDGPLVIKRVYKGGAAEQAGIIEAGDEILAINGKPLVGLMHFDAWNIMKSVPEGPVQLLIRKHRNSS

T7: PDZD7_1, Q9H5P4
T7 sequence (Q9H5P4 81-178, limits assumed, looked up): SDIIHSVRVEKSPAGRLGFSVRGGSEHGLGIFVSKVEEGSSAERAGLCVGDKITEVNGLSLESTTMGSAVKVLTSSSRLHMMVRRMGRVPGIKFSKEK

T8: SHROOM2, Q13796
T8 sequence (Q13796 21-118, limits assumed, looked up): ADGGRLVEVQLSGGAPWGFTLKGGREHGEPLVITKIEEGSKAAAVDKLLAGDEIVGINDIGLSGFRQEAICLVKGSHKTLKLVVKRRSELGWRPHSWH

T9: SHROOM3, Q8TF72
T9 sequence (Q8TF72 20-120, limits assumed, looked up): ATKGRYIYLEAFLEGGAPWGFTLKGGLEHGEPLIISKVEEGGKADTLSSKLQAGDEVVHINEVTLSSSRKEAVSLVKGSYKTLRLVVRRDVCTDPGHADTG

T10: SIPA1L3, O60292
T10 sequence (O60292 961-1052, limits assumed, looked up): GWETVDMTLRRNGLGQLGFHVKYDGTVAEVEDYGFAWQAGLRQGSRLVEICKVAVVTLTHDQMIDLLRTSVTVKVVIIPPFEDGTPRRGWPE

T11: TJP3_2, O95049
T11 sequence (O95049 190-282, limits assumed, looked up): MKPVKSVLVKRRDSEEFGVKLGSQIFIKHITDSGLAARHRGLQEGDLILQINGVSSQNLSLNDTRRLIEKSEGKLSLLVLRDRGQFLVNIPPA


Tests used:
Experiment in all cases: holdup assay
Design in all cases: key: below the threshold = too weak to quantify, mostly under pKd 3.1 to 4
Settings in all cases: plain residues with an end cap or a label only (N-terminal biotin on a linker: ttds)
AHNAK2, Q8IVF2 = molecular target: AHNAK2, Q8IVF2
AHNAK2, Q8IVF2, sequence (Q8IVF2 108-193): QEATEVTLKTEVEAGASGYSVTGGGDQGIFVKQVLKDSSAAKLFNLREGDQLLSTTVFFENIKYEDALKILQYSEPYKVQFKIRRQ

CARD14, Q9BXL6 = molecular target: CARD14, Q9BXL6
CARD14, Q9BXL6, sequence (Q9BXL6 558-663): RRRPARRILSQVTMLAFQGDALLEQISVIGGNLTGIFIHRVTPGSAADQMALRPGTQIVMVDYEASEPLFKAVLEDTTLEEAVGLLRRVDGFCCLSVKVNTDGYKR

DLG2_1, Q15700 = molecular target: DLG2_1, Q15700
DLG5_2, Q8TDM6 = molecular target: DLG5_2, Q8TDM6
DLG5_2, Q8TDM6, sequence (Q8TDM6 714-800): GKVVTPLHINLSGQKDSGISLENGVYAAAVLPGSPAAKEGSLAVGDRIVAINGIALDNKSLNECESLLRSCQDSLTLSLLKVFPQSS

GIPC1, O14908 = molecular target: T1, GIPC1, O14908
GRIP2_2, Q9C0E4 = molecular target: GRIP2_2, Q9C0E4
GRIP2_2, Q9C0E4, sequence (Q9C0E4 137-245): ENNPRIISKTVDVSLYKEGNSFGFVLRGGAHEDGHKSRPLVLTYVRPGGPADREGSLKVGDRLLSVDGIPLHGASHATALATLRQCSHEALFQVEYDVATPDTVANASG

LMO7, Q8WWI1 = molecular target: LMO7, Q8WWI1
LMO7, Q8WWI1, sequence (Q8WWI1 1037-1138): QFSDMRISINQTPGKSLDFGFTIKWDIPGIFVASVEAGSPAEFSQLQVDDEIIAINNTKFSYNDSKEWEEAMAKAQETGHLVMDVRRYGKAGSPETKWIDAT

MAGI1_5, Q96QZ7 = molecular target: MAGI1_5, Q96QZ7
MAGI1_5, Q96QZ7, sequence (Q96QZ7 986-1098): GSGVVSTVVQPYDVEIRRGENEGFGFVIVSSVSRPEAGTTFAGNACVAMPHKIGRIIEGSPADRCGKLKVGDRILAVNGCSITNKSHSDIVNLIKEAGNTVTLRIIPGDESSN

MAGI1_6, Q96QZ7 = molecular target: MAGI1_6, Q96QZ7
MAGI1_6, Q96QZ7, sequence (Q96QZ7 1146-1238): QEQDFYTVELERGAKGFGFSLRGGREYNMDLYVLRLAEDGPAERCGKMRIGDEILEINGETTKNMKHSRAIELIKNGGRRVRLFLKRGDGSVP

MAGI2_1, Q86UL8 = molecular target: T2, MAGI2_1, Q86UL8
MAGI3_3, Q5TCQ9 = molecular target: MAGI3_3, Q5TCQ9
MAGI3_3, Q5TCQ9, sequence (Q5TCQ9 572-655): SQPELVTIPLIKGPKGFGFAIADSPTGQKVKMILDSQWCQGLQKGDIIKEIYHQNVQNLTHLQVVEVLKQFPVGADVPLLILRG

MAGI3_5, Q5TCQ9 = molecular target: MAGI3_5, Q5TCQ9
MAGI3_5, Q5TCQ9, sequence (Q5TCQ9 847-941): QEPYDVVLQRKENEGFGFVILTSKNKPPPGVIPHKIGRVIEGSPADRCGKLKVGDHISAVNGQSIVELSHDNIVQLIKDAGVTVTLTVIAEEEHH

MAGIX, Q9H6Y5 = molecular target: MAGIX, Q9H6Y5
MAGIX, Q9H6Y5, sequence (Q9H6Y5 118-211): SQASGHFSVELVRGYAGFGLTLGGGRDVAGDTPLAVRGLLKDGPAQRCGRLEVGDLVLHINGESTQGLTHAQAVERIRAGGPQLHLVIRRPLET

MAST3, O60307 = molecular target: MAST3, O60307
MAST3, O60307, sequence (O60307 945-1048): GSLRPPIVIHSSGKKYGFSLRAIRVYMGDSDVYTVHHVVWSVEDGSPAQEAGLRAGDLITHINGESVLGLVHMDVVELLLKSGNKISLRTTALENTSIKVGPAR

MPDZ_11, O75970 = molecular target: T3, MPDZ_11, O75970
MPDZ_13, O75970 = molecular target: T4, MPDZ_13, O75970
PARD3B_2, Q8TEW8 = molecular target: PARD3B_2, Q8TEW8
PARD3B_2, Q8TEW8, sequence (Q8TEW8 376-471): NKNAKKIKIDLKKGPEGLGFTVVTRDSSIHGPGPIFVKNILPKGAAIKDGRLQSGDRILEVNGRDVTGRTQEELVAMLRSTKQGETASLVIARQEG

PARD3_1, Q8TEW0 = molecular target: PARD3_1, Q8TEW0
PARD3_1, Q8TEW0, sequence (Q8TEW0 264-372): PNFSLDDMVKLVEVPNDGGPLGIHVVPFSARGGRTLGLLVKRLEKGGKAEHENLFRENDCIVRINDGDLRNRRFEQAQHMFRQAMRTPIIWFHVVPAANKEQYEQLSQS

PDZD2_5, O15018 = molecular target: T5, PDZD2_5, O15018
PDZD2_6, O15018 = molecular target: T6, PDZD2_6, O15018
PDZD7_1, Q9H5P4 = molecular target: T7, PDZD7_1, Q9H5P4
SDCBP_1, O00560 = molecular target: SDCBP_1, O00560
SDCBP_1, O00560, sequence (O00560 111-198): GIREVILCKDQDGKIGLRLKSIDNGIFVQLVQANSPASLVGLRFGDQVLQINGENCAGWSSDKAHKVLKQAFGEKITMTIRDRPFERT

SHROOM2, Q13796 = molecular target: T8, SHROOM2, Q13796
SHROOM3, Q8TF72 = molecular target: T9, SHROOM3, Q8TF72
SIPA1L3, O60292 = molecular target: T10, SIPA1L3, O60292
TJP3_2, O95049 = molecular target: T11, TJP3_2, O95049

Binder	pKd (AHNAK2, Q8IVF2)	pKd (CARD14, Q9BXL6)	pKd (DLG2_1, Q15700)	pKd (DLG5_2, Q8TDM6)	pKd (GIPC1, O14908)	pKd (GRIP2_2, Q9C0E4)	pKd (LMO7, Q8WWI1)	pKd (MAGI1_5, Q96QZ7)	pKd (MAGI1_6, Q96QZ7)	pKd (MAGI2_1, Q86UL8)	pKd (MAGI3_3, Q5TCQ9)	pKd (MAGI3_5, Q5TCQ9)	pKd (MAGIX, Q9H6Y5)	pKd (MAST3, O60307)	pKd (MPDZ_11, O75970)	pKd (MPDZ_13, O75970)	pKd (PARD3B_2, Q8TEW8)	pKd (PARD3_1, Q8TEW0)	pKd (PDZD2_5, O15018)	pKd (PDZD2_6, O15018)	other results
SEKHFRETEV [HTLV1-TAX1, P03409]	below the threshold	below the threshold	5.16	5.06	4.86	below the threshold	below the threshold	5.22	4.41	below the threshold	4.36	4.86	below the threshold	below the threshold	4.25	4.77	3.97	below the threshold	4.16	below the threshold	pKd (PDZD7_1, Q9H5P4): 3.85; pKd (SDCBP_1, O00560): below the threshold; pKd (SHROOM2, Q13796): below the threshold; pKd (SHROOM3, Q8TF72): below the threshold; pKd (SIPA1L3, O60292): below the threshold; pKd (TJP3_2, O95049): below the threshold
IQREDQETAV [DGKZ, Q13574]	below the threshold	below the threshold	4.71	below the threshold	4.92	below the threshold	below the threshold	5.06	4.35	below the threshold	below the threshold	4.51	below the threshold	below the threshold	below the threshold	below the threshold	below the threshold	below the threshold	below the threshold	below the threshold	pKd (PDZD7_1, Q9H5P4): below the threshold; pKd (SDCBP_1, O00560): below the threshold; pKd (SHROOM2, Q13796): below the threshold; pKd (SHROOM3, Q8TF72): below the threshold; pKd (SIPA1L3, O60292): below the threshold; pKd (TJP3_2, O95049): below the threshold
MERLRVETDV [ARHGEF16, Q5VV41]	below the threshold	below the threshold	4.1	below the threshold	4.71	below the threshold	below the threshold	below the threshold	4.33	below the threshold	below the threshold	below the threshold	below the threshold	below the threshold	below the threshold	below the threshold	below the threshold	below the threshold	below the threshold	below the threshold	pKd (PDZD7_1, Q9H5P4): below the threshold; pKd (SDCBP_1, O00560): below the threshold; pKd (SHROOM2, Q13796): below the threshold; pKd (SHROOM3, Q8TF72): below the threshold; pKd (SIPA1L3, O60292): below the threshold; pKd (TJP3_2, O95049): below the threshold
HIVEALETDV [PBK, Q96KB5]	below the threshold	below the threshold	4.74	below the threshold	5.37	below the threshold	below the threshold	below the threshold	4.91	below the threshold	4.33	below the threshold	below the threshold	below the threshold	below the threshold	below the threshold	below the threshold	below the threshold	below the threshold	below the threshold	pKd (PDZD7_1, Q9H5P4): below the threshold; pKd (SDCBP_1, O00560): below the threshold; pKd (SHROOM2, Q13796): below the threshold; pKd (SHROOM3, Q8TF72): below the threshold; pKd (SIPA1L3, O60292): below the threshold; pKd (TJP3_2, O95049): below the threshold
NYWPGKETQL [SLCO1C1, Q9NYB5]	4.41	below the threshold	below the threshold	below the threshold	below the threshold	below the threshold	below the threshold	4.47	below the threshold	below the threshold	below the threshold	below the threshold	5.35	below the threshold	below the threshold	below the threshold	below the threshold	below the threshold	below the threshold	below the threshold	pKd (PDZD7_1, Q9H5P4): below the threshold; pKd (SDCBP_1, O00560): below the threshold; pKd (SHROOM2, Q13796): 4.98; pKd (SHROOM3, Q8TF72): below the threshold; pKd (SIPA1L3, O60292): below the threshold; pKd (TJP3_2, O95049): below the threshold
